From US20160120951A1 (ZEALAND PHARMA A S, published 2016)
Numbered stars: 1 amine (or outer) side, 2 acyl side, 3 side chain; on linkers, the order of the positions; unused ones are H or OH. Square brackets hold non-standard residues; d marks the D form. Side chains are listed from the residue outwards. * marks the point of attachment. isoGlu = used interchangeably with γ-Glu; γGlu = O=C(O)[C@H](CCC(=O)[*:2])N[*:1]; Palmitoyl = CCCCCCCCCCCCCCCC(=O)*; Aib = CC(C)(N)C(=O)O

Experiments:
[1] = target: human glucagon receptor (Glucagon-R) (human, UniProt P47871 26-477); experiment: cell-based or functional assay
[2] = target: human glucagon-like peptide 1 receptor (GLP-1R) (human, UniProt P43220 24-463); experiment: cell-based or functional assay
Sequence of human glucagon-like peptide 1 receptor (GLP-1R) (P43220 24-463): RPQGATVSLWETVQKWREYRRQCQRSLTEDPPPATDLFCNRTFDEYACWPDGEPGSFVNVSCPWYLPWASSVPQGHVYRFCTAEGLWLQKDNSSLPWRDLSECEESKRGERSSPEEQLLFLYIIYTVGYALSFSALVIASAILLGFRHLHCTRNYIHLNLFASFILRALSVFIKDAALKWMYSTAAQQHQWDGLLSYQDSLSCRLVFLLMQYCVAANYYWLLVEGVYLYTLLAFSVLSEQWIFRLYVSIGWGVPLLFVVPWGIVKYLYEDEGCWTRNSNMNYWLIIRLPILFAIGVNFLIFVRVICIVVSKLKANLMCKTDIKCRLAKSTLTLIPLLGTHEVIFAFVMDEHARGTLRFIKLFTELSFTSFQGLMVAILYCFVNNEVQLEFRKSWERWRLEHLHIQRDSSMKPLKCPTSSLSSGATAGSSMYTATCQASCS

Binder | EC50 (nM) GluR, cAMP formation [1] [nM] | EC50 (nM) GLP-1R, cAMP formation [2] [nM]
HXQGTFTSDYSKYLDSKAAHDFVEWLLSA (Aib at position 2; K(Hexadecanoyl) at position 17; C-terminal amide (NH2)) [Compound 23] | 0.124 | 0.14
HXQGTFTSDYSKYLDSKAAHDFVEWLLSA (Aib at position 2; K(Hexadecanoyl-[8-Aminooctanoyl]) at position 17; C-terminal amide (NH2)) [Compound 29] | 0.123 | 0.199
H-H[Aib]QGTFTSDYSKYLDSK([γGlu-Palmitoyl])AAHDFVEWLLS-OH (SMILES CCCCCCCCCCCCCCCC(=O)N[C@@H](CCC(=O)NCCCC[C@H](NC(=O)[C@H](CO)NC(=O)[C@H](CC(=O)O)NC(=O)[C@H](CC(C)C)NC(=O)[C@H](Cc1ccc(O)cc1)NC(=O)[C@H](CCCCN)NC(=O)[C@H](CO)NC(=O)[C@H](Cc1ccc(O)cc1)NC(=O)[C@H](CC(=O)O)NC(=O)[C@H](CO)NC(=O)[C@@H](NC(=O)[C@H](Cc1ccccc1)NC(=O)[C@@H](NC(=O)CNC(=O)[C@H](CCC(N)=O)NC(=O)C(C)(C)NC(=O)[C@@H](N)Cc1c[nH]cn1)[C@@H](C)O)[C@@H](C)O)C(=O)N[C@@H](C)C(=O)N[C@@H](C)C(=O)N[C@@H](Cc1c[nH]cn1)C(=O)N[C@@H](CC(=O)O)C(=O)N[C@@H](Cc1ccccc1)C(=O)N[C@H](C(=O)N[C@@H](CCC(=O)O)C(=O)N[C@@H](Cc1c[nH]c2ccccc12)C(=O)N[C@@H](CC(C)C)C(=O)N[C@@H](CC(C)C)C(=O)N[C@@H](CO)C(=O)O)C(C)C)C(=O)O) [Compound 18] | 0.091 | 0.066
H-H[Aib]QGTFTSDYSKYLDSK([isoGlu-Palmitoyl])AAKDFVEWLLSA-NH2 [Compound 39] | 0.24 | 0.16
HXQGTFTSDYSKYLDSKAAHDFVEWLLSA (Aib at position 2; K(Hexadecanoyl-[3-Aminopropanoyl]) at position 17; C-terminal amide (NH2)) [Compound 31] | 0.151 | 0.103
H-H[Aib]QGTFTSDYSKYLDSK([γGlu-Palmitoyl])AAHDFVEWLL-OH (SMILES CCCCCCCCCCCCCCCC(=O)N[C@@H](CCC(=O)NCCCC[C@H](NC(=O)[C@H](CO)NC(=O)[C@H](CC(=O)O)NC(=O)[C@H](CC(C)C)NC(=O)[C@H](Cc1ccc(O)cc1)NC(=O)[C@H](CCCCN)NC(=O)[C@H](CO)NC(=O)[C@H](Cc1ccc(O)cc1)NC(=O)[C@H](CC(=O)O)NC(=O)[C@H](CO)NC(=O)[C@@H](NC(=O)[C@H](Cc1ccccc1)NC(=O)[C@@H](NC(=O)CNC(=O)[C@H](CCC(N)=O)NC(=O)C(C)(C)NC(=O)[C@@H](N)Cc1c[nH]cn1)[C@@H](C)O)[C@@H](C)O)C(=O)N[C@@H](C)C(=O)N[C@@H](C)C(=O)N[C@@H](Cc1c[nH]cn1)C(=O)N[C@@H](CC(=O)O)C(=O)N[C@@H](Cc1ccccc1)C(=O)N[C@H](C(=O)N[C@@H](CCC(=O)O)C(=O)N[C@@H](Cc1c[nH]c2ccccc12)C(=O)N[C@@H](CC(C)C)C(=O)N[C@@H](CC(C)C)C(=O)O)C(C)C)C(=O)O) [Compound 19] | 0.483 | 0.048
HXQGTFTSDYSKYLDSKAAHDFVEWLLSA (Aib at position 2; K([2-Butyloctanoyl]-isoGlu) at position 17; C-terminal amide (NH2)) [Compound 24] | 0.133 | 0.161
HXQGTFTSDYSKYLDSKAAHDFVEWLLSA (Aib at position 2; K(Hexadecanoyl-isoGlu) at position 12; C-terminal amide (NH2)) [Compound 33] | 0.389 | 0.131
H-H[Aib]QGTFTSDYSKYLDSKAAHDFVEWLLK([isoGlu-Palmitoyl])A-NH2 [Compound 37] | 0.147 | 0.207
HXQGTFTSDYSKYLDSKAAHDFVEWLLSA (Aib at position 2; K(Hexadecanoyl-[4-Aminobutanoyl]) at position 17; C-terminal amide (NH2)) [Compound 27] | 0.147 | 0.152
HXQGTFTSDYSKYLDSKAAHDFVEWLLSA (Aib at position 2; K(Hexadecanoyl-isoGlu) at position 17; free C-terminal acid (OH)) [Compound 21] | 0.15 | 0.077
H-H[Aib]EGTFTSDYSKYLDSK([γGlu-Palmitoyl])AAHDFVEWLLSA-OH (SMILES CCCCCCCCCCCCCCCC(=O)N[C@@H](CCC(=O)NCCCC[C@H](NC(=O)[C@H](CO)NC(=O)[C@H](CC(=O)O)NC(=O)[C@H](CC(C)C)NC(=O)[C@H](Cc1ccc(O)cc1)NC(=O)[C@H](CCCCN)NC(=O)[C@H](CO)NC(=O)[C@H](Cc1ccc(O)cc1)NC(=O)[C@H](CC(=O)O)NC(=O)[C@H](CO)NC(=O)[C@@H](NC(=O)[C@H](Cc1ccccc1)NC(=O)[C@@H](NC(=O)CNC(=O)[C@H](CCC(=O)O)NC(=O)C(C)(C)NC(=O)[C@@H](N)Cc1c[nH]cn1)[C@@H](C)O)[C@@H](C)O)C(=O)N[C@@H](C)C(=O)N[C@@H](C)C(=O)N[C@@H](Cc1c[nH]cn1)C(=O)N[C@@H](CC(=O)O)C(=O)N[C@@H](Cc1ccccc1)C(=O)N[C@H](C(=O)N[C@@H](CCC(=O)O)C(=O)N[C@@H](Cc1c[nH]c2ccccc12)C(=O)N[C@@H](CC(C)C)C(=O)N[C@@H](CC(C)C)C(=O)N[C@@H](CO)C(=O)N[C@@H](C)C(=O)O)C(C)C)C(=O)O) [Compound 20] | 13.3 | 0.057
H-H[Aib]QGTFTSDYSKYLDSKAAHDFVK([isoGlu-Palmitoyl])WLLSA-NH2 [Compound 36] | 0.213 | 0.191
HXQGTFTSDYSKYLDSKAAHDFVEWLLSA (Aib at position 2; K(Dodecanoyl-isoGlu) at position 17; C-terminal amide (NH2)) [Compound 26] | 0.116 | 0.097
H-H[Aib]QGTFTSDYSKYLDSKAAK([γGlu-Palmitoyl])DFVEWLLSA-NH2 (SMILES CCCCCCCCCCCCCCCC(=O)N[C@@H](CCC(=O)NCCCC[C@H](NC(=O)[C@H](C)NC(=O)[C@H](C)NC(=O)[C@H](CCCCN)NC(=O)[C@H](CO)NC(=O)[C@H](CC(=O)O)NC(=O)[C@H](CC(C)C)NC(=O)[C@H](Cc1ccc(O)cc1)NC(=O)[C@H](CCCCN)NC(=O)[C@H](CO)NC(=O)[C@H](Cc1ccc(O)cc1)NC(=O)[C@H](CC(=O)O)NC(=O)[C@H](CO)NC(=O)[C@@H](NC(=O)[C@H](Cc1ccccc1)NC(=O)[C@@H](NC(=O)CNC(=O)[C@H](CCC(N)=O)NC(=O)C(C)(C)NC(=O)[C@@H](N)Cc1c[nH]cn1)[C@@H](C)O)[C@@H](C)O)C(=O)N[C@@H](CC(=O)O)C(=O)N[C@@H](Cc1ccccc1)C(=O)N[C@H](C(=O)N[C@@H](CCC(=O)O)C(=O)N[C@@H](Cc1c[nH]c2ccccc12)C(=O)N[C@@H](CC(C)C)C(=O)N[C@@H](CC(C)C)C(=O)N[C@@H](CO)C(=O)N[C@@H](C)C(N)=O)C(C)C)C(=O)O) [Compound 35] | 0.18 | 0.202
H-H[Aib]EGTFTSDYSKYLDSK([γGlu-Palmitoyl])AAHDFVEWLLSA-NH2 (SMILES CCCCCCCCCCCCCCCC(=O)N[C@@H](CCC(=O)NCCCC[C@H](NC(=O)[C@H](CO)NC(=O)[C@H](CC(=O)O)NC(=O)[C@H](CC(C)C)NC(=O)[C@H](Cc1ccc(O)cc1)NC(=O)[C@H](CCCCN)NC(=O)[C@H](CO)NC(=O)[C@H](Cc1ccc(O)cc1)NC(=O)[C@H](CC(=O)O)NC(=O)[C@H](CO)NC(=O)[C@@H](NC(=O)[C@H](Cc1ccccc1)NC(=O)[C@@H](NC(=O)CNC(=O)[C@H](CCC(=O)O)NC(=O)C(C)(C)NC(=O)[C@@H](N)Cc1c[nH]cn1)[C@@H](C)O)[C@@H](C)O)C(=O)N[C@@H](C)C(=O)N[C@@H](C)C(=O)N[C@@H](Cc1c[nH]cn1)C(=O)N[C@@H](CC(=O)O)C(=O)N[C@@H](Cc1ccccc1)C(=O)N[C@H](C(=O)N[C@@H](CCC(=O)O)C(=O)N[C@@H](Cc1c[nH]c2ccccc12)C(=O)N[C@@H](CC(C)C)C(=O)N[C@@H](CC(C)C)C(=O)N[C@@H](CO)C(=O)N[C@@H](C)C(N)=O)C(C)C)C(=O)O) [Compound 22] | 26.4 | 0.014
HXQGTFTSDYSKYLDSXAAHDFVEWLLSA (Aib at position 2; Orn(Hexadecanoyl-isoGlu) at position 17; C-terminal amide (NH2)) [Compound 32] | 0.193 | 0.195
HXQGTFTSDYSKYLDSKAAHDFVEWLLSA (Aib at position 2; K(Octadecanoyl-isoGlu) at position 17; C-terminal amide (NH2)) [Compound 25] | 0.103 | 0.069
HXQGTFTSDYSKYLDSKAAHDFVEWLLSA (Aib at position 2; K(Hexadecanoyl-E) (Hexadecanoyl-αGlu) at position 17; C-terminal amide (NH2)) [Compound 28] | 0.108 | 0.149
HXQGTFTSDYSKYLDSKAAHDFVEWLLSA (Aib at position 2; K(Hexadecanoyl-isoLys) at position 17; C-terminal amide (NH2)) [Compound 30] | 0.11 | 0.132
H-H[Aib]QGTFTSDYSKYLDK([γGlu-Palmitoyl])KAAHDFVEWLLSA-NH2 (SMILES CCCCCCCCCCCCCCCC(=O)N[C@@H](CCC(=O)NCCCC[C@H](NC(=O)[C@H](CC(=O)O)NC(=O)[C@H](CC(C)C)NC(=O)[C@H](Cc1ccc(O)cc1)NC(=O)[C@H](CCCCN)NC(=O)[C@H](CO)NC(=O)[C@H](Cc1ccc(O)cc1)NC(=O)[C@H](CC(=O)O)NC(=O)[C@H](CO)NC(=O)[C@@H](NC(=O)[C@H](Cc1ccccc1)NC(=O)[C@@H](NC(=O)CNC(=O)[C@H](CCC(N)=O)NC(=O)C(C)(C)NC(=O)[C@@H](N)Cc1c[nH]cn1)[C@@H](C)O)[C@@H](C)O)C(=O)N[C@@H](CCCCN)C(=O)N[C@@H](C)C(=O)N[C@@H](C)C(=O)N[C@@H](Cc1c[nH]cn1)C(=O)N[C@@H](CC(=O)O)C(=O)N[C@@H](Cc1ccccc1)C(=O)N[C@H](C(=O)N[C@@H](CCC(=O)O)C(=O)N[C@@H](Cc1c[nH]c2ccccc12)C(=O)N[C@@H](CC(C)C)C(=O)N[C@@H](CC(C)C)C(=O)N[C@@H](CO)C(=O)N[C@@H](C)C(N)=O)C(C)C)C(=O)O) [Compound 34] | 0.053 | 0.109
